# Data from patent US20220177587A1, “METHODS AND USES OF VARIANT CD80 FUSION PROTEINS AND RELATED CONSTRUCTS” (Alpine Immune Sciences, Inc., priority 2018, published 2022).
# Tests used:
# CD28 [1] = target: T1, CD28 (Homo sapiens, UniProt P10747); assay: Flow binding to Jurkat/IL2 reporter cells (CD28); design: host or cells: Jurkat cells expressing an IL-2-luciferase reporter; details: Table E4; 33.3 nM; Jurkat cells (CD28)
# How it was run: (§1)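 Binding EC50 and PE mean fluorescence intensity derived by flow cytometry using PE-labelled anti-human Fc secondary. Target cells were CTLA4- or PD-L1-transfected CHO lines and CD28-expressing Jurkat/IL2 reporter cells, stained with fusion proteins on ice for 45 min following BSA blocking.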
# CD28 [2] = target: T1, CD28; assay: Jurkat/IL2 + K562/OKT3/PD-L1 reporter assay; assay type: cell-based; design: host or cells: Jurkat cells expressing an IL-2-luciferase reporter; details: Table E8; K562/OKT3/PD-L1 aAPC; 50 nM
# huPD-L1 = huPD-L1 (Homo sapiens, UniProt Q9NZQ7); assay: Flow binding to CHO cells stably expressing PD-L1; design: huCTLA4 and huPD-L1, full-length mammalian surface expression constructs were generated; expressed in transfected cells; host or cells: CHO cells, lentiviral transduction, sorted to >98% purity; details: Table E4; 33.3 nM; CHO cells stably expressing PD-L1
# Chain of huPD-L1 (Q9NZQ7 19-290): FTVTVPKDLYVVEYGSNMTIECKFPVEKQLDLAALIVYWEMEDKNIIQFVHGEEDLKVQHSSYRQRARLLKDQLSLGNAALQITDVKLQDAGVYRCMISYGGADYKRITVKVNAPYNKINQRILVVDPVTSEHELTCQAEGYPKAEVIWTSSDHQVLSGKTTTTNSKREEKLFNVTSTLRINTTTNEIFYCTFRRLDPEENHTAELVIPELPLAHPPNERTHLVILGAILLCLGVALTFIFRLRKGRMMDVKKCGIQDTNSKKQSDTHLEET
# How it was run: as §1
# huCTLA4 = huCTLA4 (Homo sapiens, UniProt P16410); assay: Flow binding to CHO cells stably expressing CTLA4; design: huCTLA4 and huPD-L1, full-length mammalian surface expression constructs were generated; expressed in transfected cells; host or cells: CHO cells, lentiviral transduction, sorted to >98% purity; details: Table E4; 33.3 nM variant CD80 IgV-Fc; CHO cells stably expressing CTLA4
# Chain of huCTLA4 (P16410 36-223): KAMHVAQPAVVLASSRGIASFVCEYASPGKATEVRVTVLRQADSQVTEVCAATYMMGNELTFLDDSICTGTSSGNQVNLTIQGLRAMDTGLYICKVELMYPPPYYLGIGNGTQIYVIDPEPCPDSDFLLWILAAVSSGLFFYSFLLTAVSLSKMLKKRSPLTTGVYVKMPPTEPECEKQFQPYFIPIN
# How it was run: as §1
Molecule,CD28 MFI at 33.3 nM (CD28 [1]),"Relative Luciferase Units (RLU), CD80-Fe Cone 50 nM (CD28 [2]) [RLU]",PD-L1 MFI at 33.3 nM (huPD-L1),CTLA4 MFI at 33.3 nM (huCTLA4),Fold Increase over WT CD80-IgV-Fe (CD28 [2])
"E35D/M47I/Y87Q/K89E (protein, UniProt P33681 35-288, looked up, variant E35D M47I Y87Q K89E) T-lymphocyte activation …: VIHVTKEVKEVATLSCGHNVSVEELAQTRIYWQKDKKMVLTMMSGDINIWPEYKNRTIFDITNNLSIVILALRPSDEGTYECVVLKQEEDAFKREHLAEVTLSVKADFPTPSISDFEIPTSNIRRIICSTSGGFPEPHLSWLENGEELNAINTTVSQDPETELYAVSSKLDFNMTTNHSFMCLIKYGHLRVNQTFNWNTTKQEHFPDNLLPSWAITLISVNGIFVICCLTYCFAPRCRERRRNERLRRESVRPV",15452,1581,29803,,
"E35D/M43I/M47V/K89N (protein, UniProt P33681 35-288, looked up, variant E35D M43I M47V K89N) T-lymphocyte activation …: VIHVTKEVKEVATLSCGHNVSVEELAQTRIYWQKDKKMVLTMISGDVNIWPEYKNRTIFDITNNLSIVILALRPSDEGTYECVVLKYENDAFKREHLAEVTLSVKADFPTPSISDFEIPTSNIRRIICSTSGGFPEPHLSWLENGEELNAINTTVSQDPETELYAVSSKLDFNMTTNHSFMCLIKYGHLRVNQTFNWNTTKQEHFPDNLLPSWAITLISVNGIFVICCLTYCFAPRCRERRRNERLRRESVRPV",,1094,19250,278391,
"E35D/T41S/M43I/M47L/A71G (protein, UniProt P33681 35-288, looked up, variant E35D T41S M43I M47L A71G) T-lymphocyte activation …: VIHVTKEVKEVATLSCGHNVSVEELAQTRIYWQKDKKMVLSMISGDLNIWPEYKNRTIFDITNNLSIVILGLRPSDEGTYECVVLKYEKDAFKREHLAEVTLSVKADFPTPSISDFEIPTSNIRRIICSTSGGFPEPHLSWLENGEELNAINTTVSQDPETELYAVSSKLDFNMTTNHSFMCLIKYGHLRVNQTFNWNTTKQEHFPDNLLPSWAITLISVNGIFVICCLTYCFAPRCRERRRNERLRRESVRPV",,1535,,209034,
"E35D/M38T/M43V/M47V/N48R/L85Q (protein, UniProt P33681 35-288, looked up, variant E35D M38T M43V M47V N48R L85Q, Fc fusion) T-lymphocyte activation …: VIHVTKEVKEVATLSCGHNVSVEELAQTRIYWQKDKKTVLTMVSGDVRIWPEYKNRTIFDITNNLSIVILALRPSDEGTYECVVQKYEKDAFKREHLAEVTLSVKADFPTPSISDFEIPTSNIRRIICSTSGGFPEPHLSWLENGEELNAINTTVSQDPETELYAVSSKLDFNMTTNHSFMCLIKYGHLRVNQTFNWNTTKQEHFPDNLLPSWAITLISVNGIFVICCLTYCFAPRCRERRRNERLRRESVRPV",,680,,,3.3
"E35D/A71G (protein, UniProt P33681 35-288, looked up, variant E35D A71G) T-lymphocyte activation …: VIHVTKEVKEVATLSCGHNVSVEELAQTRIYWQKDKKMVLTMMSGDMNIWPEYKNRTIFDITNNLSIVILGLRPSDEGTYECVVLKYEKDAFKREHLAEVTLSVKADFPTPSISDFEIPTSNIRRIICSTSGGFPEPHLSWLENGEELNAINTTVSQDPETELYAVSSKLDFNMTTNHSFMCLIKYGHLRVNQTFNWNTTKQEHFPDNLLPSWAITLISVNGIFVICCLTYCFAPRCRERRRNERLRRESVRPV",,1190,34149,184204,
"E35D/M47L/A71G/L85Q (protein, UniProt P33681 35-288, looked up, variant E35D M47L A71G L85Q) T-lymphocyte activation …: VIHVTKEVKEVATLSCGHNVSVEELAQTRIYWQKDKKMVLTMMSGDLNIWPEYKNRTIFDITNNLSIVILGLRPSDEGTYECVVQKYEKDAFKREHLAEVTLSVKADFPTPSISDFEIPTSNIRRIICSTSGGFPEPHLSWLENGEELNAINTTVSQDPETELYAVSSKLDFNMTTNHSFMCLIKYGHLRVNQTFNWNTTKQEHFPDNLLPSWAITLISVNGIFVICCLTYCFAPRCRERRRNERLRRESVRPV",1436,1256,,,
"E35D/M38T/D46E/M47V/N48S (protein, UniProt P33681 35-288, looked up, variant E35D M38T D46E M47V N48S) T-lymphocyte activation …: VIHVTKEVKEVATLSCGHNVSVEELAQTRIYWQKDKKTVLTMMSGEVSIWPEYKNRTIFDITNNLSIVILALRPSDEGTYECVVLKYEKDAFKREHLAEVTLSVKADFPTPSISDFEIPTSNIRRIICSTSGGFPEPHLSWLENGEELNAINTTVSQDPETELYAVSSKLDFNMTTNHSFMCLIKYGHLRVNQTFNWNTTKQEHFPDNLLPSWAITLISVNGIFVICCLTYCFAPRCRERRRNERLRRESVRPV",,1315,,,
"E35D/M47V/A71G/E88D (protein, UniProt P33681 35-288, looked up, variant E35D M47V A71G E88D) T-lymphocyte activation …: VIHVTKEVKEVATLSCGHNVSVEELAQTRIYWQKDKKMVLTMMSGDVNIWPEYKNRTIFDITNNLSIVILGLRPSDEGTYECVVLKYDKDAFKREHLAEVTLSVKADFPTPSISDFEIPTSNIRRIICSTSGGFPEPHLSWLENGEELNAINTTVSQDPETELYAVSSKLDFNMTTNHSFMCLIKYGHLRVNQTFNWNTTKQEHFPDNLLPSWAITLISVNGIFVICCLTYCFAPRCRERRRNERLRRESVRPV",6237,1216,37146,,
"Q33R/E35D/M47V/N48K/L85M/F92L (protein, UniProt P33681 35-288, looked up, variant Q33R E35D M47V N48K L85M F92L, Fc fusion) T-lymphocyte activation …: VIHVTKEVKEVATLSCGHNVSVEELAQTRIYWRKDKKMVLTMMSGDVKIWPEYKNRTIFDITNNLSIVILALRPSDEGTYECVVMKYEKDALKREHLAEVTLSVKADFPTPSISDFEIPTSNIRRIICSTSGGFPEPHLSWLENGEELNAINTTVSQDPETELYAVSSKLDFNMTTNHSFMCLIKYGHLRVNQTFNWNTTKQEHFPDNLLPSWAITLISVNGIFVICCLTYCFAPRCRERRRNERLRRESVRPV",,215,,2680,
"E35D/L85Q/K93T/E95V/L97Q (protein, UniProt P33681 35-288, looked up, variant E35D L85Q K93T E95V L97Q) T-lymphocyte activation …: VIHVTKEVKEVATLSCGHNVSVEELAQTRIYWQKDKKMVLTMMSGDMNIWPEYKNRTIFDITNNLSIVILALRPSDEGTYECVVQKYEKDAFTRVHQAEVTLSVKADFPTPSISDFEIPTSNIRRIICSTSGGFPEPHLSWLENGEELNAINTTVSQDPETELYAVSSKLDFNMTTNHSFMCLIKYGHLRVNQTFNWNTTKQEHFPDNLLPSWAITLISVNGIFVICCLTYCFAPRCRERRRNERLRRESVRPV",,315,,,1.5
"I30V/E35D/M47V/A71G/A91V (protein, UniProt P33681 35-288, looked up, variant I30V E35D M47V A71G A91V) T-lymphocyte activation …: VIHVTKEVKEVATLSCGHNVSVEELAQTRVYWQKDKKMVLTMMSGDVNIWPEYKNRTIFDITNNLSIVILGLRPSDEGTYECVVLKYEKDVFKREHLAEVTLSVKADFPTPSISDFEIPTSNIRRIICSTSGGFPEPHLSWLENGEELNAINTTVSQDPETELYAVSSKLDFNMTTNHSFMCLIKYGHLRVNQTFNWNTTKQEHFPDNLLPSWAITLISVNGIFVICCLTYCFAPRCRERRRNERLRRESVRPV",,1503,,204756,
"E35D/A71D/L72V/R73H/E81K (protein, UniProt P33681 35-288, looked up, variant E35D A71D L72V R73H E81K) T-lymphocyte activation …: VIHVTKEVKEVATLSCGHNVSVEELAQTRIYWQKDKKMVLTMMSGDMNIWPEYKNRTIFDITNNLSIVILDVHPSDEGTYKCVVLKYEKDAFKREHLAEVTLSVKADFPTPSISDFEIPTSNIRRIICSTSGGFPEPHLSWLENGEELNAINTTVSQDPETELYAVSSKLDFNMTTNHSFMCLIKYGHLRVNQTFNWNTTKQEHFPDNLLPSWAITLISVNGIFVICCLTYCFAPRCRERRRNERLRRESVRPV",,282,,,
"V22D/E35D/M47L/L85Q (protein, CD80 v261 ECD) VIHVTKEVKEVATLSCGHNVSDEELAQTRIYWQKDKKMVLTMMSGDLNIWPEYKNRTIFDITNNLSIVILALRPSDEGTYECVVQKYEKDAFKREHLAEVTLSVKADFPTPSISDFETPTSNIRRIICSTSGGFPEPHLSWLENGEELNAINTTVSQDPETELYAVSSKLDFNMTTNHSFMCLIKYGHLRVNQTFNWNTTKQEHFPDN",542,1142,,,
"T28Y/Q33H/E35D/D46V/M47I/A71G (protein, CD80 v291 ECD) VIHVTKEVKEVATLSCGHNVSVEELAQYRIYWHKDKKMVLTMMSGVINIWPEYKNRTIFDITNNLSIVILGLRPSDEGTYECVVLKYEKDAFKREHLAEVTLSVKADFPTPSISDFETPTSNIRRIICSTSGGFPEPHLSWLENGEELNAINTTVSQDPETELYAVSSKLDFNMTTNHSFMCLIKYGHLRVNQTFNWNTTKQEHFPDN",,580,,,2.8
"V22D/E35D/M47L/L70M/L97Q (protein, CD80 v283 ECD) VIHVTKEVKEVATLSCGHNVSDEELAQTRIYWQKDKKMVLTMMSGDLNIWPEYKNRTIFDITNNLSIVIMALRPSDEGTYECVVLKYEKDAFKREHQAEVTLSVKADFPTPSISDFETPTSNIRRIICSTSGGFPEPHLSWLENGEELNAINTTVSQDPETELYAVSSKLDFNMTTNHSFMCLIKYGHLRVNQTFNWNTTKQEHFPDN",,1542,,,
